Test results taken from EP2225268B1.

Assays:
[1] = biological target: Wild-type recombinant human NGAL dimer calibrators treated with DTT (human) (UniProt P80188); assay: … sandwich CMIA, capture HYB 211-01, detection acridinium-HYB 211-02; calibrator F, NGAL 1000 ng/mL
[2] = biological target: Wild-type recombinant human NGAL dimer expressed in CHO cells (human) (UniProt P80188); assay: as above
[3] = biological target: Wild-type recombinant human NGAL dimer calibrators treated with DTT (human) (UniProt P80188); assay: … sandwich CMIA, capture HYB 211-01, detection acridinium-HYB 211-02; NGAL 5 ng/mL
[4] = biological target: Native NGAL purchased from Diagnostics Development (Uppsala, Sweden), non-reduced (UniProt P80188); assay: as above
[5] = biological target: Wild-type recombinant human NGAL dimer expressed in CHO cells (human) (UniProt P80188); assay: as above
[6] = biological target: Wild-type recombinant human NGAL monomer expressed in CHO cells (human) (UniProt P80188); assay: as above
[7] = biological target: Wild-type recombinant human NGAL dimer calibrators treated with DTT (human) (UniProt P80188); assay: … sandwich CMIA, capture HYB 211-01, detection acridinium-HYB 211-02; calibrator E, NGAL 600 ng/mL
[8] = biological target: Wild-type recombinant human NGAL dimer expressed in CHO cells (human) (UniProt P80188); assay: as above
[9] = biological target: Wild-type recombinant human NGAL monomer expressed in CHO cells (human) (UniProt P80188); assay: as above
[10] = biological target: Wild-type recombinant human NGAL monomer expressed in CHO cells (human) (UniProt P80188); assay: … sandwich CMIA, capture 1-2322-455, detection acridinium-1-903-430; monomer calibrator plus TCEP; NGAL 5 ng/mL
[11] = biological target: Wild-type recombinant human NGAL dimer expressed in CHO cells (human) (UniProt P80188); assay: … sandwich CMIA, capture 1-2322-455, detection acridinium-1-903-430; curve fit with monomer calibrators; target 5 ng/mL
[12] = biological target: Wild-type recombinant human NGAL monomer expressed in CHO cells (human) (UniProt P80188); assay: as above
[13] = biological target: Wild-type recombinant human NGAL dimer expressed in CHO cells (human) (UniProt P80188); assay: … sandwich CMIA, capture 1-2322-455, detection acridinium-1-903-430; NGAL 250 ng/mL
[14] = biological target: Wild-type recombinant human NGAL monomer expressed in CHO cells (human) (UniProt P80188); assay: as above
[15] = biological target: Wild-type recombinant human NGAL dimer expressed in CHO cells (human) (UniProt P80188); assay: … sandwich CMIA, capture 1-2322-455, detection acridinium-1-903-430; NGAL 1000 ng/mL
[16] = biological target: Wild-type recombinant human NGAL monomer expressed in CHO cells (human) (UniProt P80188); assay: as above
[17] = biological target: Wild-type recombinant human NGAL dimer calibrators with TCEP in the reaction mixture (human) (UniProt P80188); assay: … sandwich CMIA, capture 1-2322-455, detection acridinium-1-903-430; TCEP in reaction; NGAL 250 ng/mL
[18] = biological target: Wild-type recombinant human NGAL dimer calibrators with TCEP in the reaction mixture (human) (UniProt P80188); assay: … sandwich CMIA, capture 1-2322-455, detection acridinium-1-903-430; TCEP in reaction; curve fit with monomer calibrators; target 250 ng/mL
[19] = biological target: Wild-type recombinant human NGAL dimer expressed in CHO cells (human) (UniProt P80188); assay: … sandwich CMIA, capture 1-2322-455, detection acridinium-1-903-430; NGAL 600 ng/mL
[20] = biological target: Wild-type recombinant human NGAL monomer expressed in CHO cells (human) (UniProt P80188); assay: as above
[21] = biological target: Wild-type recombinant human NGAL dimer calibrators with TCEP in the reaction mixture (human) (UniProt P80188); assay: … sandwich CMIA, capture 1-2322-455, detection acridinium-1-903-430; TCEP in reaction; NGAL 1000 ng/mL
[22] = biological target: Wild-type recombinant human NGAL dimer expressed in CHO cells (human) (UniProt P80188); assay: … sandwich CMIA, capture 1-2322-455, detection acridinium-1-903-430; curve fit with monomer calibrators; target 1000 ng/mL
[23] = biological target: Wild-type recombinant human NGAL monomer expressed in CHO cells (human) (UniProt P80188); assay: as above
[24] = biological target: Wild-type recombinant human NGAL dimer calibrators with TCEP in the reaction mixture (human) (UniProt P80188); assay: … sandwich CMIA, capture 1-2322-455, detection acridinium-1-903-430; TCEP in reaction; curve fit with monomer calibrators; target 5 ng/mL
[25] = biological target: Wild-type recombinant human NGAL dimer calibrators with TCEP in the reaction mixture (human) (UniProt P80188); assay: … sandwich CMIA, capture 1-2322-455, detection acridinium-1-903-430; TCEP in reaction; NGAL 5 ng/mL

anti-NGAL antibody HYB 211-01 from AntibodyShop A/S, Gentofte, Denmark
RLUs [1]: 855000 RLUs
RLUs [2]: 390000 RLUs
RLUs [3]: 11400 RLUs
RLUs [4]: 15300 RLUs
RLUs [5]: 4050 RLUs
RLUs [6]: 12000 RLUs
RLUs [7]: 676000 RLUs
RLUs [8]: 282000 RLUs
RLUs [9]: 691000 RLUs

B1: antibody produced by murine hybridoma cell line 1-2322-455 having ATCC Accession No. PTA-8024 (antibody, V domains shown)
VH: EVQLVESGGGLVQPGGSLKLSCAASGFTFNNYYMSWVRQTPERRLEWVAYISSSGGSTYYSDSVRGRFTISRDTARNTLYLQMTSLKSEDTAMYYCARHFGDYSYFDYWGQGTTLTVSS
VL: DIQMTQSPASLSASVGETVTITCRASENFYSYLAWYQQKQGKSPQLLVYNAKTLAEGVPSRFSGSGSGTQFSLKINSLQPEDFGTYYCQHHYDIPLTFGAGTKLELKR
RLUs [10]: 29300 RLUs
Curve Fit Results [11]: 1.2 ng/mL
Curve Fit Results [12]: 4.7 ng/mL
RLUs [13]: 336000 RLUs
RLUs [14]: 900000 RLUs
RLUs [15]: 993000 RLUs
RLUs [16]: 1.93e+06 RLUs
RLUs [17]: 535000 RLUs
Curve Fit Results [18]: 126 ng/mL
RLUs [19]: 680000 RLUs
RLUs [20]: 1.51e+06 RLUs
RLUs [21]: 1.37e+06 RLUs
Curve Fit Results [22]: 294 ng/mL
Curve Fit Results [23]: 1010 ng/mL
Curve Fit Results [24]: 2.2 ng/mL
RLUs [25]: 15000 RLUs
